Assay [1] deals with T1, Human TNFR2-His (Sino 10417-H08H) (human, UniProt P20333 23-257).
T1 construct: Bought protein; also called recombinant human TNFR2 protein; not shown: His tag
T1 sequence (looked up): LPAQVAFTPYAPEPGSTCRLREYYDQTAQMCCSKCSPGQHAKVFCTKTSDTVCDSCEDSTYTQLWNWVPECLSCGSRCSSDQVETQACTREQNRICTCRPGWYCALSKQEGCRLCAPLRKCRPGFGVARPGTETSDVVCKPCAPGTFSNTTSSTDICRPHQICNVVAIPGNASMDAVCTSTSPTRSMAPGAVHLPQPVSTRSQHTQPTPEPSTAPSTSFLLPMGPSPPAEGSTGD
Description: ELISA, human TNFR2-His coated. As for the experimental part: (§1) The test humanized antibody against TNFR2 (as described in Example 1, the antibody was comprised of variable regions linked to IgG-Fc; the WT chimeric antibody also adopted the IgG-Fc structure) was subjected to 3.33-fold gradient dilution, loaded with 100 μl/well, and incubated with shaking at room temperature for 1.5 hours. The plate was washed, and then a working solution of murine anti-human IgG Fc-HRP (diluted at 1:10000) was added, loaded with 100 μl/well, and incubated with shaking at room temperature for 1.0 hour. The plate was washed again, and then the substrate TMB of HRP was added to develop colour. A stop solution was added to stop the reaction, and then a microplate reader (MD 13) was used to read the absorbance value. The binding curve of an antibody was drawn with antibody concentration as the abscissa and corresponding OD value as the ordinate, and fitted with four parameters (GraphPad Prism9) to calculate the EC50 value. The smaller the EC50 value, the stronger the binding ability of an antibody to human/cynomolgus monkey TNFR2. The binding effect of a humanized antibody was normalized to its corresponding human-murine chimeric antibody WT (see SEQ ID NOs: 38-43 for the sequence). The higher the percentage value, the better the binding effect of the humanized antibody. The results of binding of an anti-TNFR2 antibody to a human TNFR2 protein are shown in FIG. 1 and Table 4, and the results of binding of an anti-TNFR2 antibody to cynomolgus monkey TNFR2 are shown in FIG. 2 and Table 4.
In general terms: In an ELISA, binding on a coated surface is turned into a signal by an enzyme label.

For assay [2], the target named is T2, Cynomolgus TNFR2-His (Sino 90102-C08H) (cynomolgus monkey, UniProt A0A2K5VET2 132-366).
T2 construct: Bought protein; also called cynomolgus monkey TNFR2; recombinant cynomolgus monkey TNFR2 protein; not shown: His tag
T2 sequence: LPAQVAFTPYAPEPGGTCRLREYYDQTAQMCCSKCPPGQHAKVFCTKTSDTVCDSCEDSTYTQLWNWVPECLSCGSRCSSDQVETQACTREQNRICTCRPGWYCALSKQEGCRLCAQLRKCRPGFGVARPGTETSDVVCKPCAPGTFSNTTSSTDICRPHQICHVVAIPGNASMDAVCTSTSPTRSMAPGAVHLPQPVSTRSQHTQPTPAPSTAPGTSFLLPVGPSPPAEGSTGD
As to the kind of experiment: ELISA, cynomolgus TNFR2-His coated. As to the method: as §1

In assay [3] the target is T1, Human TNFR2-His (Sino 10417-H08H). As to the kind of experiment: SPR (Biacore T200), antibody captured on Protein A chip. As to the method:
Biacore was used to detect the specific binding of a test anti-TNFR2 antibody to human and cynomolgus monkey TNFR2 proteins. In this experiment, a Protein A chip was used, the time required for the chip to capture the diluted antibody was determined by manual run, so that the Rmax of the saturated binding to an antigen was 50 RU. […] The affinity of an antibody for an antigen was determined by using multi-cycle dynamics. In each cycle, an antibody was injected and then a TNFR2 protein at a gradient concentration was injected, so that the antigen and the antibody underwent binding and dissociation processes. After each cycle, the Protein A chip was regenerated with Glycine pH 1.5 (removing the protein on the chip). The affinity KD of an antibody and an antigen was fitted with BIAcore T200 analysis software.
(In general: Surface plasmon resonance follows binding to a sensor surface in real time, without labels.)

In assay [4] the target is T3, human TNFR2 on the surface of CHO-TNFR2 cells (human, UniProt P20333 23-461).
T3 construct: whole, on cells
T3 sequence (looked up): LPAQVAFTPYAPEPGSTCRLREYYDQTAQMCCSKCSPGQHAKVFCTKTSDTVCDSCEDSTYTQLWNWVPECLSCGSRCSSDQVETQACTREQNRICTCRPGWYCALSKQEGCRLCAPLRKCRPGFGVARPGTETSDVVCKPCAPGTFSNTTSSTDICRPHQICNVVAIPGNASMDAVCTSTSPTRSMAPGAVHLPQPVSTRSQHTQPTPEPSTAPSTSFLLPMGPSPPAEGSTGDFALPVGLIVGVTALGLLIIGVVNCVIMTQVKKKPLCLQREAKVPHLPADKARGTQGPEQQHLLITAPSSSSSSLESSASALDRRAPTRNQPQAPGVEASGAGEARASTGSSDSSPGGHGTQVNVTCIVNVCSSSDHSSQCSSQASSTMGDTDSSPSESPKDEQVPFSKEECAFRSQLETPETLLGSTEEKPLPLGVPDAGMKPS
As to the kind of experiment: competition flow cytometry on CHO-TNFR2 cells, competitor TNFα-biotin; area under the MFI curve. The arrangement: unit not given beside the values. As to the method: CHO stable cells highly expressing human TNFR2 were used for the experiment (the same as CHO-TNFR2 in Example 4). The CHO-TNFR2 cells were digested, washed twice with DPBS, then stained with Live/Dead (L/D) (20 minutes at room temperature), and plated at a density of 1×10⁵ cells/50 μl/well. A test anti-TNFR2 antibody was diluted to 6 μg/ml with a staining buffer as the starting concentration: the antibody was subjected to 3.33-fold gradient dilution, with a total of 7 concentration points. The diluted antibody was added to the plated cells at 50 μl/well, and the mixture was mixed well by gentle pipetting, and incubated at 4° C. for 30 minutes. Then the diluted 100 ng/ml of human TNFα-biotin was added at 100 μl/well, and the mixture was mixed well by gentle pipetting, and then incubated at 4° C. for 30 minutes. The mixture was washed twice with a staining buffer, and then 0.12 μg/ml PE-streptavidin (BioLegend, Cat #405204) was added at 100 μl/well; the resulting mixture was incubated at 4° C. for 30 minutes. The mixture was washed twice with a staining buffer, and then 150 μl of staining buffer was added to resuspend the cells; signals were detected by a flow cytometer (Thermo Attune NxT). The inhibitory curve of an antibody was drawn with antibody concentration as the abscissa and corresponding MFI value as the ordinate, and fitted with four parameters (GraphPad Prism9) to calculate the IC50 value. The smaller the IC50 value, the stronger the ability of an antibody to inhibit the binding of human TNFα to human TNFR2. The blocking effect of a humanized antibody was normalized to its corresponding human-murine chimeric WT antibody. The higher the percentage value, the better the inhibitory effect of the humanized antibody.
Background: A flow cytometer gives signals particle by particle.

B1: 001-Hu5 (antibody, V domains shown)
VH: EVQLVESGGGLVQPGGSLRLSCAASGFAFSTYDLSWVRQAPGKGLEWVAYINNGGISTYYSDTVKGRFTISRDNAKNTLYLQMNSLRAEDTAVYYCVRGPFYGSANYFDYWGQGTLVTVSS
VL: DIQMTQSPSSLSASVGDRVTITCRTSESIYSNLPWYQQKPGKSPKLLVYDATKLAEGVPSRFSGSGSGTDYTLTISSLQPEDFATYYCQHFWVTPWTFGQGTKVEIK
notes: Humanized form of #001; also called VH1 + VL4
Turning to B1, the EC50 (as a rule, the concentration at which the effect is half-maximal) in assay [1] came to 0.0102 µg/mL. For the same molecule, in assay [2], the EC50 worked out at 0.00988 µg/mL. For the same molecule, in assay [3], the Kd (in general, the constant that tells how readily two partners part at equilibrium) is 0.416 nM; the koff (as a rule, a measure of how fast the partners let go of each other) was determined as 0.000115 s⁻¹; the kon (as a rule, the rate constant with which the complex forms) was determined as 277000 M⁻¹ s⁻¹. Also, the AUC in assay [4] is 10200.

B2: 001-Hu2 (antibody, V domains shown)
VH: EVQLVESGGGLVQPGGSLRLSCAASGFAFSTYDLSWVRQAPGKGLEWVAYINNGGISTYYSDTVKGRFTISRDNAKNSLYLQMNSLRAEDTAVYYCVRGPFYGSANYFDYWGQGTLVTVSS
VL: DIQMTQSPSSLSASVGDRVTITCRTSESIYSNLPWYQQKPGKSPKLLIYDATKLAEGVPSRFSGSGSGTDFTLTISSLQPEDFATYYCQHFWVTPWTFGQGTKVEIK
notes: Humanized form of #001; also called VH2 + VL2
B2 registered an EC50 in assay [1] of 0.00956 µg/mL. It took 0.00914 µg/mL to reach a half-maximal effect in assay [2] (EC50). Also, in assay [3], the affinity, expressed as Kd, was 0.496 nM; the koff turned out to be 0.000107 s⁻¹; the kon turned out to be 215000 M⁻¹ s⁻¹. This molecule registered an AUC in assay [4] of 9000.

B3: 001-Hu1 (antibody, V domains shown)
VH: EVQLVESGGGLVQPGGSLRLSCAASGFAFSTYDLSWVRQAPGKGLEWVAYINNGGISTYYSDTVKGRFTISRDNAKNTLYLQMNSLRAEDTAVYYCVRGPFYGSANYFDYWGQGTLVTVSS
VL: DIQMTQSPSSLSASVGDRVTITCRTSESIYSNLPWYQQKPGKAPKLLLYDATKLAEGVPSRFSGSGSGTDYTLTISSLQPEDFATYYCQHFWVTPWTFGQGTKVEIK
notes: Humanized form of #001; also called VH1 + VL1
In assay [1], B3 returned an EC50 of 0.00986 µg/mL. This molecule also returned an EC50 in assay [2] of 0.00962 µg/mL. Further, in assay [3], the Kd stood at 0.371 nM, the koff is 0.000108 s⁻¹ and the kon was determined as 291000 M⁻¹ s⁻¹. Moreover, in assay [4], the AUC was determined as 8840.

B4: 001-Hu4 (antibody, V domains shown)
VH: EVQLVESGGGLVQPGGSLRLSCAASGFAFSTYDLSWVRQAPGKGLEWVAYINNGGISTYYSDTVKGRFTISRDNAKNSLYLQMNSLRAEDTAVYYCVRGPFYGSANYFDYWGQGTLVTVSS
VL: DIQMTQSPSSLSASVGDRVTITCRTSESIYSNLPWYQQKPGKSPKLLVYDATKLAEGVPSRFSGSGSGTDYTLTISSLQPEDFATYYCQHFWVTPWTFGQGTKVEIK
notes: Humanized form of #001; also called VH2 + VL4
For the molecule B4, a half-maximal response in assay [1] (EC50) required 0.00894 µg/mL. In assay [2], this molecule registered an EC50 of 0.00927 µg/mL. For the same molecule, in assay [3], the Kd was 0.417 nM, the koff was found to be 0.000113 s⁻¹ and the kon turned out to be 270000 M⁻¹ s⁻¹. Besides, the AUC in assay [4] was 10200.

B5: 001-Hu3 (antibody, V domains shown)
VH: EVQLVESGGGLVQPGGSLRLSCAASGFAFSTYDLSWVRQAPGKGLEWVAYINNGGISTYYSDTVKGRFTISRDNAKNTLYLQMNSLRAEDTAVYYCVRGPFYGSANYFDYWGQGTLVTVSS
VL: DIQMTQSPSSLSASVGDRVTITCRTSESIYSNLPWYQQKPGKAPKLLIYDATKLAEGVPSRFSGSGSGTDYTLTISSLQPEDFATYYCQHFWVTPWTFGQGTKVEIK
notes: Humanized form of #001; also called VH1 + VL3
Regarding B5, the EC50 in assay [1] turned out to be 0.0101 µg/mL. Moreover, in assay [2], the EC50 is 0.0099 µg/mL. In assay [3], this molecule had a Kd of 0.375 nM, a koff of 9.91e-05 s⁻¹ and a kon of 265000 M⁻¹ s⁻¹. The molecule also had an AUC in assay [4] of 8810.

B6: 219-Hu3 (antibody, V domains shown)
VH: QVQLVQSGAEVKKPGSSVKVSCKASGYSFTNYWMNWVRQAPGQGLEWMGMIHPSDTETRLNQNFKDRVTITADKSTSTAYMELSSLRSEDTAVYYCARGEGLGAARSVSMDYWGQGTLVTVSS
VL: DIQMTQSPSSLSASVGDRVTITCRASQDISNYLNWYQQKPDGTVKLLIYYTAILHSGVPSRFSGSGSGTDYSLTISSLQPEDFATYFCQQGNTLPWTFGQGTKVEIK
notes: also called VH5 + VL5
Turning to B6, the EC50 in assay [1] was 0.021 µg/mL. Also, in assay [2], a half-maximal response (EC50) required 0.0127 µg/mL. In assay [3], this molecule yielded a Kd of 0.362 nM, a koff of 0.000146 s⁻¹ and a kon of 403000 M⁻¹ s⁻¹. In assay [4], this molecule returned an AUC of 7590.

B7: 219-Hu1 (antibody, V domains shown)
VH: QVQLVQSGAEVKKPGASVKVSCKASGYSFTNYWMNWVRQAPGQRLEWMGMIHPSDTETRLNQNFKDRVTITRDTSASTAYMELSSLRSEDTAVYYCARGEGLGAARSVSMDYWGQGTLVTVSS
VL: DIQMTQSPSSLSASVGDRVTITCRASQDISNYLNWYQQKPDGTVKLLIYYTAILHSGVPSRFSGSGSGTDYSLTISSLQPEDFATYFCQQGNTLPWTFGQGTKVEIK
notes: also called VH3 + VL5
As for B7, the EC50 in assay [1] was 0.0213 µg/mL. The response in assay [2] was half-maximal at 0.0148 µg/mL (EC50). In assay [3], this molecule showed a Kd of 0.354 nM, a koff of 0.000153 s⁻¹ and a kon of 433000 M⁻¹ s⁻¹. In assay [4], the AUC is 7320.

B8: 219-Hu2 (antibody, V domains shown)
VH: QVQLVQSGAEVKKPGSSVKVSCKASGYSFTNYWMNWVRQAPGQGLEWMGMIHPSDTETRLNQNFKDKATITADKSTSTAYMELSSLRSEDTAVYYCARGEGLGAARSVSMDYWGQGTLVTVSS
VL: DIQMTQSPSSLSASVGDRVTITCRASQDISNYLNWYQQKPDGTVKLLIYYTAILHSGVPSRFSGSGSGTDYSLTISSLQPEDFATYFCQQGNTLPWTFGQGTKVEIK
notes: also called VH4 + VL5
In turn, B8 showed an EC50 in assay [1] of 0.0185 µg/mL. This molecule came in with a concentration for a half-maximal effect (EC50) in assay [2] of 0.0113 µg/mL. In assay [3], this molecule gave a Kd of 0.34 nM, a koff of 0.000151 s⁻¹ and a kon of 443000 M⁻¹ s⁻¹. The molecule further returned an AUC in assay [4] of 7340.

For the origin of these results see patent US20240109974A1 (SHANDONG SIMCERE BIOPHARMACEUTICAL, published 2024).
